We go through 4 substances from paper PMC8886539.

Values joined by “and” are separate entries in the source; they are usually repeats but may differ in a detail not shown here. Equal entries are not always repeated.

Experiment [1] deals with DNA polymerase α-primase complex (human) (UniProt P09884).
Experiment [2] has the same target. The source holds these as a separate data set.
For experiment [3], the target named is full-length SV40 T antigen Tag_(1-708) (simian virus 40) (UniProt P03070). As to the kind of experiment: atomic force microscopy (volume analysis); 500 nM protein (or 250 nM each of M1 and M2) with gapped DNA substrate (48 nt ssDNA at the centre of ~500 bp, 3-5 nM) in 25 mM HEPES-NaOH pH 7.5, 25 mM sodium acetate, 10 mM magnesium acetate, 1 mM ATP, 1 h at room temperature; cross-linked with 0.1% glutaraldehyde; volumes of complexes on the ssDNA stretch.

The target of experiment [4] is wt Tag_(131-627) (simian virus 40). As to the kind of experiment: SEC; Superdex 200 16/600 column; proteins in solution; data not shown. (SEC sorts molecules by how far they enter the pores of the column.)
Experiment [5] has the same target. Briefly: atomic force microscopy (volume analysis); 500 nM protein (or 250 nM each of M1 and M2) with gapped DNA substrate (48 nt ssDNA at the centre of ~500 bp, 3-5 nM) in 25 mM HEPES-NaOH pH 7.5, 25 mM sodium acetate, 10 mM magnesium acetate, 1 mM ATP, 1 h at room temperature; cross-linked with 0.1% glutaraldehyde; volumes of complexes on the ssDNA stretch.

Chain of UniProt P09884 (P09884 whole entry, chain 1 of 4): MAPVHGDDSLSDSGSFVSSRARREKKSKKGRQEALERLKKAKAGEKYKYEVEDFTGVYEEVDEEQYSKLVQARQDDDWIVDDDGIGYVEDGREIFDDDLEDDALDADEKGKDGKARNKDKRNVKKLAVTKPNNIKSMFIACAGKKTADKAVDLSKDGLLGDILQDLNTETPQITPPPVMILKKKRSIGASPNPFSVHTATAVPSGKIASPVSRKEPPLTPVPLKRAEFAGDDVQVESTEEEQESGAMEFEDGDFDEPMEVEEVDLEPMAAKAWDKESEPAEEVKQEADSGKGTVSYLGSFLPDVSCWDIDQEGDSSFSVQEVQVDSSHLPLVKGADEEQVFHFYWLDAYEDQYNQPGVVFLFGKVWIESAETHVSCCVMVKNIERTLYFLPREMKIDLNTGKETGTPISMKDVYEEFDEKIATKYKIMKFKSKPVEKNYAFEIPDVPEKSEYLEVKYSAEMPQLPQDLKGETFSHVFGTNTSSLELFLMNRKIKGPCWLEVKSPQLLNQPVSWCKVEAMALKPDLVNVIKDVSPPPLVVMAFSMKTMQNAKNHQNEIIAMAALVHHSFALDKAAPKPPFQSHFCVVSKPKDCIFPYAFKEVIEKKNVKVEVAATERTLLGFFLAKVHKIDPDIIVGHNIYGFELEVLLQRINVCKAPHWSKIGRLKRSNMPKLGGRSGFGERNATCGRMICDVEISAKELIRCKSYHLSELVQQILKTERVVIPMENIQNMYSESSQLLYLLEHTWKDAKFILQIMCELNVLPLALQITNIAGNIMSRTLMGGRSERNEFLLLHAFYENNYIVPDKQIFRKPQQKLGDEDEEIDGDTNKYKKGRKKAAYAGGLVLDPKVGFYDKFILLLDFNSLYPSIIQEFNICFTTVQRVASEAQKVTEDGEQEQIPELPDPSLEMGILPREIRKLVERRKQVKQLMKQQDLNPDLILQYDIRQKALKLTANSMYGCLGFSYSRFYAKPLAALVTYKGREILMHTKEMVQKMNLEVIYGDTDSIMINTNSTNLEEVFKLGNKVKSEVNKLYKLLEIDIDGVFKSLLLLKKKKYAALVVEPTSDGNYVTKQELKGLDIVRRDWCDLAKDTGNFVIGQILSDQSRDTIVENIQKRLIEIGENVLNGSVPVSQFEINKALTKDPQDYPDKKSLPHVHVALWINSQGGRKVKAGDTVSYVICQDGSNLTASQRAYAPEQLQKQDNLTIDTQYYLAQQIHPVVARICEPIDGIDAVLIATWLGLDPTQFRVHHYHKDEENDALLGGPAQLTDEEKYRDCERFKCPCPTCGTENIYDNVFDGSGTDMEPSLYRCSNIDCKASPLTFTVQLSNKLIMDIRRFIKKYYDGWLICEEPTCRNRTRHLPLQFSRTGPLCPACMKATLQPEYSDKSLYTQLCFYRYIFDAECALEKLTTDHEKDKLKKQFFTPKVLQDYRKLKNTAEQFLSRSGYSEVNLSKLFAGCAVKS
Chain of UniProt P09884 (Q14181 whole entry, chain 2 of 4, further chain): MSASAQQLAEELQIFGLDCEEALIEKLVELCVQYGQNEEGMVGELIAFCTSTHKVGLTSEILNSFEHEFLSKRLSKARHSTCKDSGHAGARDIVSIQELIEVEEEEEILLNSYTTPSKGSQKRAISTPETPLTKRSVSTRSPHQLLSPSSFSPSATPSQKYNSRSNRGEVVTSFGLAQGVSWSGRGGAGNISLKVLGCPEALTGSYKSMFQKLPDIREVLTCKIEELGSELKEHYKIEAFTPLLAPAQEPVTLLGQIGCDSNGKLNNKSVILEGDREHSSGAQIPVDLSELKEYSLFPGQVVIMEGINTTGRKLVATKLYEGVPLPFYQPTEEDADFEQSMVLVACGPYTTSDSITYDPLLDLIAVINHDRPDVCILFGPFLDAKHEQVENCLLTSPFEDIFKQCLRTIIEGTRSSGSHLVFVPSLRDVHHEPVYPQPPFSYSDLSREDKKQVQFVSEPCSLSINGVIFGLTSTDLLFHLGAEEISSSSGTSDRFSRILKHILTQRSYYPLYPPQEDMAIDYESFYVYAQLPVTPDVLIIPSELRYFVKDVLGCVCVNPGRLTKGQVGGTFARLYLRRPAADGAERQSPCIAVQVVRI
Chain of UniProt P09884 (P49643 whole entry, chain 3 of 4, further chain): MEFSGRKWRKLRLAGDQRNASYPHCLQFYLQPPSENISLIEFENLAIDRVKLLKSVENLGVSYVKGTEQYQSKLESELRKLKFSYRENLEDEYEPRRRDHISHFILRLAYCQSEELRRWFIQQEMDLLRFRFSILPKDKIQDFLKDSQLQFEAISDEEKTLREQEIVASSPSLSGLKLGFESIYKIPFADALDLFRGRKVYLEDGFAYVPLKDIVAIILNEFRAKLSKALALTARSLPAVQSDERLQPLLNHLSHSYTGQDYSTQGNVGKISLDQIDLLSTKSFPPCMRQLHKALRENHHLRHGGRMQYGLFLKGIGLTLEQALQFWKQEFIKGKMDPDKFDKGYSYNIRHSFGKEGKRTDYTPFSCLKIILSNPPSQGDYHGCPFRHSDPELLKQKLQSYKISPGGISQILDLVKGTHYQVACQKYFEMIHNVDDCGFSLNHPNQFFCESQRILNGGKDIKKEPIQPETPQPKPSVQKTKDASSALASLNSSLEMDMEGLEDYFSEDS
Chain of UniProt P09884 (P49642 whole entry, chain 4 of 4, further chain): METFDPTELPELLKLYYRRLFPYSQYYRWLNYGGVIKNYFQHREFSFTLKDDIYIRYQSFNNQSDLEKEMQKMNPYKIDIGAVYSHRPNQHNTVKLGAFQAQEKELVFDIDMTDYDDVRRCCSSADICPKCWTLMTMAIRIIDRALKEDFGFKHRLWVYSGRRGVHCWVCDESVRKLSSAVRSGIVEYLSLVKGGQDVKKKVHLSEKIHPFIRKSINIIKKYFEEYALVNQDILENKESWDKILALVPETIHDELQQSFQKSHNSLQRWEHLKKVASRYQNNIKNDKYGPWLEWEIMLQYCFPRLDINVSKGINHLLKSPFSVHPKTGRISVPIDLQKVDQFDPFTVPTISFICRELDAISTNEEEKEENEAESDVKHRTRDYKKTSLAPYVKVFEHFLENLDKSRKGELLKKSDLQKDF

In turn, “Tag_(131-627)(L286D/R567E) (domain or fragment)” showed a primase-initiated DNA synthesis (dNMP incorporation) by Pol-prim on ΦΧ174 ssDNA, 0.3 and 0.6 µg Tag variant, stimulation against Pol-prim alone in experiment [1] of 4 fold. Besides, the primase-initiated DNA synthesis (dNMP incorporation) by Pol-prim on RPA-bound ssDNA (0.5 µg RPA), 0.3 and 0.6 µg Tag variant, stimulation against RPA without Tag in experiment [2] worked out at 10.4 fold.

“Tag_(131-627)(V350E/P417D) (domain or fragment)” registered a primase-initiated DNA synthesis (dNMP incorporation) by Pol-prim on ΦΧ174 ssDNA, 0.3 and 0.6 µg Tag variant, reduction against Pol-prim alone in experiment [1] of 65 % reduction.

One may read the stoichiometry N as a count of units in the complex or per binding partner. For “full-length SV40 T antigen Tag_(1-708) (from UniProt P03070 1-708) (natural protein)”, the primase-initiated DNA synthesis (dNMP incorporation) by Pol-prim on RPA-bound ssDNA (0.5 µg RPA), 0.3 and 0.6 µg Tag, stimulation against RPA without Tag in experiment [2] was 11.5 fold. Further, the stoichiometry N in experiment [3] is 2.

As for wt Tag_(131-627) (domain or fragment), the primase-initiated DNA synthesis (dNMP incorporation) by Pol-prim on ΦΧ174 ssDNA, 0.3 and 0.6 µg Tag variant, inhibition against Pol-prim alone in experiment [1] turned out to be 96 % inhibition. Besides, the stoichiometry N is 6 in experiment [4]; 6 and 12 in experiment [5].
